According to patent US20200199209A1 (JIANGSU HENGRUI MEDICINE, published 2020):

Experiments:
human sclerostin (SOST) [1] = biological target: T1, human sclerostin (SOST) (human, UniProt Q9BQB4 24-213); experiment: blocking of human SOST binding to human LRP-6 (Test Example 2)
T1 construct: also called human SOST; h-SOST
T1 sequence (looked up): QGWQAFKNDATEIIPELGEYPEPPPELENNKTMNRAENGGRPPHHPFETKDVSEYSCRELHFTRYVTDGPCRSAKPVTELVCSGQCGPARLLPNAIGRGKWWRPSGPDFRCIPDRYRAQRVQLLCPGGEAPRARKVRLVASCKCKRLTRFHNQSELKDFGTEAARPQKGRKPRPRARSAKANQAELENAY

human sclerostin (SOST) [2] = biological target: T1, human sclerostin (SOST); experiment: ELISA binding to human sclerostin (Test Example 1)

B1: murine anti-human SOST monoclonal antibody Ab-1 (antibody, V domains shown)
VH: EVQLQQSGPELVKPGTSVKIPCQTSGYTFTDYNLDWLKQRPGESLEWIGDIDPNNGDILYNQKFRDKATLTVDTSSNTAYLELRSLTSEDTAVYYCARRWAYYFDYWGQGTTLTISS
VL: NIVMTQTPKLLFVSAGDRITITCKASQSVSNDVAWYQQKPGQSPKLLIYYTSNRFTGVPDRFTGSGYGTDFTLTINTVQAEDLAVYFCQQDYSSPVTFGAGTKLELK
notes: Murine antibody from the hybridoma cell strain Ab-1; also called murine Ab-1
IC50 (human sclerostin (SOST) [1]): 9.91 nM | EC50 (human sclerostin (SOST) [2]): 0.701 nM
